Measured values: the DeepSol protein solubility set

experiment: soluble on expression in E. coli; label from the status in PepcDB or PDB records

Soluble on expression in E. coli, not soluble:
MGSDKIHHHHHHMAKDIEISASESKFILEALRQNYRLDGRSFDQFRDVEITFGKEFGDVSVKMGNTKVHCRISCQIAQPYEDRPFEGLFVISTEISPMAGSQFENGNITGEDEVLCSRIIEKSVRRSGALDVEGLCIVAGSKCWAVRADVHFLDCDGGFIDASCIAVMAGLMHFKKPDITVHGEQIIVHPVNEREPVPLGILHIPICVTFSFFNPQDTEENIKGETNSEISIIDATLKEELLRDGVLTVTLNKNREVVQVSKAGGLPMDALTLMKCCHEAYSIIEKITDQILQLLKEDSEKRNKYAAMLTSENAREI
MGSDKIHHHHHHMAKILVVTDGAYGYRIKGTINSFGKKNKFIGIYKINKPDDLIVDDIEFPDELLEKIKEADILLLYTQHPDNTYYLCYEARRLNKDIAIIVATWSGEGEKKELKKFDAICPEEMCLLDENEVGSLIDKYPKLKEFLEEFGTPKVKVYVKDNKVIDVEVLRTSICGSTLFMAKLMKGMEVNDIEEFAKKSAMLIQRYPCVAGKIKIFRGDCRKQKALNIHKEAVLEGIIFI
MGSDKIHHHHHHMAKINLIIAETDGAYLKGLVNYISSNFEDTFRITCFTNREYLEKYISSGRISDILLIKTDMFYEGLMKNSIKSIAILSEGGNMDEFNGLPVVKKYQPGEKLCREILNIYYNNNPEVAPCKEVKKQEGSIITLYSPVGGIGKSTIAIEMAKKLSDSNKKVLYLNLEDLQSTLVFFECSTSKNMSDFLYFIKERDENFKEVLKDIVLKDEESGINYFAPVDSVLDIEDLKVDDVKFMLQKLIEVNMYNYIIIDLSSTFNINYKTIFEMSSKIIVPIGQDKLSSVKLQNFLKQLDNLENFSFIQNKYKDNLETIIPHVLLREKKPIIQKIYYDEALESVSSLIYLKNRASTFLRCIDELIMKLL
MGSDKIHHHHHHMAKLYFNYSTMNAGKSTVLLQASHNYRERGMQTYLMTAAIDGRAGTGRIASRIGIGAEADIFTPRDDVFAMIRDRLGAGPVACVFVDEAQFLSPEQVWQLARVVDDLDVPVLAYGLRVDFQGKLFPGSATLLALADEMREVRTICKCGRKATMVIRQDASGRAITEGAQVQIGGNETYVSLCRKHWREATGDPGAKGH
MGSDKIHHHHHHMAKLYFYYSTMNAGKSTTLLQSDYNYRERNMNTLVYTAAIDDRFGKGKVSSRIGIHRQANLFHKDTDLFTEIALHIKQQKLHCILIDEAQFLTKAQVYQLSNVVDELNIPVLCYGLRTDFQAELFEGSKYLLAWADQLEELKTICYCGRKANFVLRLNEQGKAVKDGEQIQIGGNDSYMSVCRKHYKEILYSSNE
MGSDKIHHHHHHMAKNKALFECQACGNQQSKWLGKCPDCGAWDSFVELKAEQIKVLKELAQVSMKTSEAVCIEDVELEHFTRYSTDDNELDLVLGGGLVEGSLVLIGGSPGVGKSTLLLKIASNLAKQGKKVLYVSGEESKAQIKLRADRLEANTPNLFLLTELCLENILEELHKKDYSILIVDSIQTLYSNKITSAAGSITQVREITFELMRVSKAYNISTFIIGHITKEGAIAGPRVLEHMVDVVLYFEGDATKEIRLLRGFKNRFGGTNEVGIFEMTAKGLISAKDLANRFFTRGKAISGSALGVVMEGSRALVLEVQALVCESSYPKRSATGYEKNRLDMLLALLERKLEIPLGHYDVFVNISGGVKVSETAADLAVVAAIISSFKNRPLSKDSIFIGELSLNGEIREVFSLDTRLKEAKMQKFKNAIVPSKPLEDIGLKCFVAKELSQVLEWM
MGSDKIHHHHHHMAKNKQEDIFDAAMQLFAERGYDGTTIPMIAEKAKVGAGTIYRYFENKEALVNSLFSKSMLQLSEMIKTDFPVEANIREQFSHTYNRLFEFARNNVDAFLFTNSHCDSYFLDEQSKKIFDDFIGFFMNIIEDGIVKGLLRPLPPVALIIIVYQPLEKLIKVIATGQLEYSKELVKELEESSWNAIRII
MGSDKIHHHHHHMAKSKIDELMSVGIDIGKDTFHVVAFDPDGHLVMRKRIKRLALVATFEKLPRCVVGMEACLSAHFVSRTLRKMGFEPGIIPAIYVKPFIKGQKNDYNYAEAISEAALRPNLPVVPEKSQEQLDLQALHRVRSRLVSRRTASINQIRAFLIEQGITVRKGLRVLKNSFGKILDERKDEISPRMRTILIGLYGDWLWLDDRIDTVSKEIEQISRTEENCINVMTVPGIGPMISTAMVAAIGTGEAFGRGRDFAAWVGLVPRQYSTGGRTILGRITKRGSRYLRMLFVQAAKVILMRTNRWPDFSFGDWLIKAAERMNRNKLAVALANKLARMA
MGSDKIHHHHHHMAKYRIMTFDGGGTLGALSLQLLNRLARQNPKLISRTHVFSGNSIGSFTALALASGRSPRETLQYFEDEILPAFSISRPGGPVFNQQLPYSGFIKAVRNFFPADLQLIDLRKRIVVPSFKLYSQKLDRWTPVLFHNFPGSPYLNEKVSDVILRSSGAPATQRAYQNYVDGYVVATNPSTASIAFAVGKANVPLDQIAVLSIGTGEAPTRLRRDTRGWGMVSADNIRPENLKNLPPNWGVLLDRSPNEPLLPFLQMIAGGNGYYESMVSANLLGDRFFRLDPRIPNFSKTDPAVVPAVIEIANKTNLQPANQFIEKNWGSK
MGSDKIHHHHHHMALDGYTDQTMSRQAMRAELLDAETELRLAYAWRDQRDERALHRLITAYMRLAISMASKYRRYGAPMNDLIQEASLGLMKAADKFDPDRGVRFSTYAVWWIKASIQDYVMRNWSLVRTGSTSSQKALFFNMRRVQARLEREASQRGEALDAHQLREMVAHDVGVPLSDVEMMEGRLSGSDFSLNATQSADDEGREWIDALEDDSAQAAEVVEGSLDAARLRGWLVSAMQQLNARERFIVTERKLRDVPRTLESLGEELKLSKERVRQLEAAAFAKMRRSLEAQSREVHHFLL
MGSDKIHHHHHHMALIRINFMAASLHRTVPLMVCLPTDKLVPDEQGVPRPIQGPFATLYLLHGILGSEVDWISGTRIQRWADERNLAVVMPAGENSFYTDHPWSGETYSQFIGQELIDFTRRTFPLSHQRDQTFIGGLSMGGYGALYNGLKFHDIFGAIVSLSAGLNVRPGMEKLPAKPQWFAETAAYQHGVFGPDLAAAGHSELNPQVLVTKLLAAHVALPAIFMAIGDQDGLKPANDEFDHFLTAKKVSHEYVVGSGAHEWDFWDRYLLKALNWLPLTNQGAGVNSGHIKAN
MGSDKIHHHHHHMALKDIISQVYRRLFNVIATVCPVRKHVVLFEAFNGKVPMDNPLYVYEALQTAHPDWKLVWSVKRQLVVEAQEKYPKLNIIPRFSAKWLLVAPVAEFWVLNARMPYWLKKNAKTTYIQTWHGTPLKRLGIDIPKVSMPGTDTSQYRQNFTAESKRWDYLIAPNQFSKDVFRRAFDFNNQFLDYGYPRNDRLVHQRQDYDAIAAIKKRIVGNKMGKVILYAPTWRDDFFIRKGMYKMNLPFSLAAVVKRLNKEDVLIIRPHYLVAESINIQGFEDNVKLCVDEDINDLYLISDLLITDYSSVMFDYAILNRPMLFYPYDLAHYQGDVRGFYFDYNKVPGPIVTNEQDFLAKLDQFLTNDGYPNETAKMMAFRTQFTEWEQGTASQRVVKLITSIDQNANNYTG
MGSDKIHHHHHHMALKDYAIEKEKVKKFLQEFYYENELGKKQFKYGTQLVHLAHREQVALYVDLDDIAEDDPELVDSICENAKRYSRLFGDVVQELLPEYKEKEVVNKDVLDVYIEHRLMMEQRSRDPGAVRNPQNQYPSELMRRFELYFRGPSSSKPRVIREVRADSVGKLLTVRGIVTRVSEVKPRMVVATYTCDQCGAETYQPIQSPTFMPLIMCPSQECQTNRSGGRLYLQTRGSKFVKFQEMKIQEHSDQVPVGNIPRSITVVLEGENTRIAQPGDHVSVTGIFLPVLRTGFQQMAQGLLSETYLEAHWIVKMTKSDDDVSGAGELSSEELKQIAEEDFYEKLAASIAPEIYGHEDVKKALLLLLVGGVDQSPQGMKIRGNIHICLMGDPGVAKSQLLSYIDRLAPRSQYTTGRGSSGVGLTAAVLRDSVSGELTLEGGALVLADQGVCCIDEFDKMAEADRTAIHEVMEQQTISIAKAGILTTLNARCSILAAANPAYGRYNPRRSLEQNVQLPAALLSRFDLLWLIQDRPDRDNDLRLAQHITYVHQHSRQPPAQFEPLDMKLMRRYIAMCHERQPTVPESLADYITAAYVEMRREARASKDATYTSARTLLAILRLSTALARLRMVDIVEKEDVNEAIRLMEMSKDSLLGEKGQTARTQRPADVIFATIRELVSRGRSVHFSEAEQRCISRGFTPAQFQAALDEYEELNVWQVNTSRTRITFV
MGSDKIHHHHHHMALQWVKRTIKAGAALAGCVLVVTALDPARGSVDAKERVKGIVAAAAMSPAGIPFELAAQEIATIGTRPMAERLSISGELQPVNRVLIRAREAGKILEMNVREGQAVRAGDMLVRFETDELQSTLLLRQSDRDAAEAELMLAMQALARTEQLAAKNIASTEQLDKAKSDVVVKTTRVQSLSSQVDIARLALRNAEIRAPFDGTVTRRVAETGARIGADGELLTLVDTSELEAKVLVATRDIPRVARGQTAELEIDGLAGQIVKGTVERISPVAEDGTRVVAVYLRLANRDGQLWGGMFAGGSILLREKNDALVVPAIALRKDETGYHVLKIQDGHLRRQTVAVGPRWNGGSLIEIGAGLADGETILTVPLPELRPDMAVTIDKAG
MGSDKIHHHHHHMALVRLSQIHFNFQTAAQPLFEDLNLTIAAGECHLIHGYTGCGKSTLLKLLQGILERPWEGEREIAEGATLGVVMQDPNVQLLRQTLGAEVAFALENLGVASSEMLLQVRSALRRVGLYISLDTPIASLSLGQRYRLMIAAQLVLEPDLLLLDEPWAQLDDQGVAELSAVLHQLKQQGVALLIVEHHRGVFKDLVTHRWQLSQGQLQALAPAECEATSEQVSWRESPAWPQGSAVIDSHGFTLAFRERQKLFDADSLLLFPGEIAALVGDNGCGKSTLLKSLAGIQADIDPLGIKVFGKKPKLGRFGADLALLHQRPSRQLFENTVIEEMQFSLKRFGLPLERAIELLGQLGLTTLARHSPHTLSYGQQHLIALASLACLRPKLLLLDDPFAGLDEHFTDKIVALLTELSRQGTALVIASHRPIAALPVDRLWRVVDGRLESLSASPQAYSRVG
MGSDKIHHHHHHMALYEPFPNYIWNLSVSIAMESGGQIGEIVDMCQPIIDAASNGGDAGTPQFMKQWAAYGDKLIALAAEDEARGRMFSASNKLERASLYLLVAERMQGHGAPGRKESYAKARDAFDKSTALGKINRERVEIPLGKGTMPALYTRAPGNGPHPVVVYCNGLDSCKELLYWSRLPEALARRGISTICVDQPGSGEALRLQDLPVDPHSENWASKAVDWLEQQPDVDPKRIGMTGISLGGHFAPRAVAYEPRFASGAVWGANHNWREVQDKRLKREGENPVPHYWAHVMWAFGASDMDDFMVKSEDMNLNGHMDRIKVPFLVTHGADDRQISVSYADDLYDQLVNSPRREKVIFTAREGGVEHVGADNMAYGRDCIADWFAETLGGTTA
MGSDKIHHHHHHMAMEHVDVLIVGAGLSGIGAAYHLQKHCPGKTYAILEGREAIGGTWDLFRYPGIRSDSDMYTLGYSFKPWKAAKAIADGPSILDYVRETAREHDIDRHIRFQHLVKRASWSSETATWTVEAEHDGKPVTLTCRFLHMCSGYYRYSAGYTPDFAGTERFKGRIVHPQHWPEDLDYSGKKVVVIGSGATAVTLVPEMAKTAAHVTMLQRSPTYVVSRPAEDGIANWLRSKLPAMTAYGITRWKNVLFQLFFFNLARKKPEKVKERLLGMVRDHLGPGYDVETHFTPRYNPWDQRLCLVPDADLFDAIKSGAASVVTDHIETFTETGIQLKSGKTLDADVIVTATGLQLQLLSGMEVVVDGKVADLSQSMSYKGMMFSDVPNLASVFGYTNASWTLKADLTSEYVCRLLNHMDRTGADYCVPRLDGEVEAAPWLDFSSGYITRSIGHFPKQGTRKPWKVHQNYALDLMTLRMGKVEDGVMQFGRKTGATAKAKPEKALEPA
